For test [1], the target named is HRV14-NimII-XXX23AA library (Human rhinovirus 14; influenza type A virus) (UniProt P03303). Nature of the test: cell-based or functional assay.
The target in test [2] is HRV14-NimII-XXX17AA library (Human rhinovirus 14; influenza type A virus) (UniProt P03303). In words: cell-based or functional assay.

Results on 1 substance are retold here after patent US20100239605A1.

For the substance “anti-M2e Mab 14C2 (Abcam, Inc; Cat# ab5416) (antibody)”, the Fifty-percent neutralization (PRNT) (reciprocal dilution of 1 mg/ml stock) in test [1] and in test [2] was 2e+06 each time.
